{"source": "patent US7084106", "biological_target": "cell surface class I HLA-ABC molecules on human umbilical cord vascular endothelial cells (HUVECs) (human)", "assay": "flow cytometry on HUVECs, isotype-matched mouse IgG2a control", "data": [{"substance": "isotype-matched mouse IgG2a mAb (nonspecific mouse monoclonal antibody)", "values": [{"measurement": "percent binding (control threshold)", "value": "< 1", "unit": "%"}]}]}
